Test results from article PMC3272785.

Substrate: Nc1nc(=O)[nH]cc1F
Assay: steady-state kinetics
Format: biochemical, Saccharomyces cerevisiae
Details: Zn2+

B1: yeast cytosine deaminase (yCD) (Saccharomyces cerevisiae S288C) (protein)
chain: MASKWDQKGMDIAYEEAALGYKEGGVPIGGCLINNKDGSVLGRGHNMRFQKGSATLHGEISTLENCGRLEGKVYKDTTLYTTLSPCDMCTGAIIMYGIPRCVVGENVNFKSKGEKYLQTRGHEVVVVDDERCKKIMKQFIDERPQDWFEDIGE
Km: 0.16 ± 0.01 mM | kcat: 17 ± 0.4 s⁻¹ | kcat/Km: 106000 M⁻¹ s⁻¹
